Measurements published in patent US20200306340A1 (ACCELERON PHARMA, published 2020).

Legend:
GDF11 [1] = biological target: T1, GDF11 (UniProt O95390 299-407); assay: cell-based or functional assay
T1 sequence (looked up): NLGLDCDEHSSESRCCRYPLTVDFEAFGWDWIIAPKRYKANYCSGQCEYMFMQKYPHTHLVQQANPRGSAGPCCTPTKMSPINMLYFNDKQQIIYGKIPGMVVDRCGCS

activin A [2] = biological target: T2, activin A (UniProt P08476 311-426); assay: cell-based or functional assay
T2 sequence (looked up): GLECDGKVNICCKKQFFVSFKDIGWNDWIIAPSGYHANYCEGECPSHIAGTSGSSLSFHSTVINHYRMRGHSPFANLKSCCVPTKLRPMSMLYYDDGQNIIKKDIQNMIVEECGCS

BMP9 = biological target: T3, BMP9 (UniProt Q9UK05 320-429); assay: Biacore SPR; receptor-Fc captured by anti-Fc antibody, ligand injected; transient interaction
T3 construct: also called GDF2
T3 sequence (looked up): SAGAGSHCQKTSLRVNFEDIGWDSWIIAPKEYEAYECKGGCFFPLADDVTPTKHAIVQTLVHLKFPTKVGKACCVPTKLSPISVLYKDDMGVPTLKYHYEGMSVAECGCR

BMP6 = biological target: T4, BMP6 (UniProt P22004 382-513, limits assumed); assay: Biacore SPR; receptor-Fc captured by anti-Fc antibody, ligand injected
T4 sequence (looked up): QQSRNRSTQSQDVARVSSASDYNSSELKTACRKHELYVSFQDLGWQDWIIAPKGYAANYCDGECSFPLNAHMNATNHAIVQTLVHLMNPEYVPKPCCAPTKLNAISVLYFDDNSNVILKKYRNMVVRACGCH
Procedure: (§1) Ligands were injected and allowed to flow over the captured receptor protein.

GDF11 [3] = biological target: T1, GDF11; assay: as above
Procedure: as §1

GDF3 = biological target: T5, GDF3 (UniProt Q9NR23 251-364); assay: as above
T5 sequence (looked up): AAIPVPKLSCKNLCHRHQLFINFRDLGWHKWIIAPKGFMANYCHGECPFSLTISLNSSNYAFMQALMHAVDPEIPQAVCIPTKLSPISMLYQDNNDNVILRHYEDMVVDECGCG
Procedure: as §1

BMP10 = biological target: T6, BMP10 (UniProt O95393 317-424); assay: as above
T6 sequence (looked up): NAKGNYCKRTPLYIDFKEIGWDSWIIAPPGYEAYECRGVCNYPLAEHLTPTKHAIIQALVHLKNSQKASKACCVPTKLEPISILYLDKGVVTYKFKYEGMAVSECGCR
Procedure: as §1

GDF8 = biological target: T7, GDF8 (UniProt O14793 267-375); assay: as above
T7 construct: also called myostatin
T7 sequence (looked up): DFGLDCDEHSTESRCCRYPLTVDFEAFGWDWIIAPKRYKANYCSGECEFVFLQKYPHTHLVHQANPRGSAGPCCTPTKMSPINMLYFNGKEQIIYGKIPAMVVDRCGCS
Procedure: as §1

activin A [4] = biological target: T2, activin A; assay: as above
Procedure: as §1

activin B = biological target: T8, activin B (UniProt P09529 293-407); assay: as above
T8 sequence (looked up): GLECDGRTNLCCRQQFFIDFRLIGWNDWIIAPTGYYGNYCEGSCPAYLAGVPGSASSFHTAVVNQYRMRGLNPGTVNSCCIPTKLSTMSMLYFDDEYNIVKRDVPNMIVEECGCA
Procedure: as §1

“ActRIIB-Fc A64 (20-134) (from UniProt Q13705 20-134) (Fc fusion)” gave a GDF11 Inhibition Activity, KI (A-204 CAGA12 luciferase reporter gene assay) (GDF11 [1]) of 1000 nM and an Activin Inhibition Activity, KI (A-204 CAGA12 luciferase reporter gene assay) (activin A [2]) of 1000 nM.

B1: ALK4-Fc:ActRIIB-Fc heterodimer (Fc fusion)
chain 1: SGPRGVQALLCACTSCLQANYTCETDGACMVSIFNLDGMEHHVRTCIPKVELVPAGKPFYCLSSEDLRNTHCCYTDYCNRIDLRVPSGHLKEPEHPSMWGPVE
chain 2: GRGEAETRECIYYNANWELERTNQSGLERCEGEQDKRLHCYASWRNSSGTIELVKKGCWLDDFNCYDRQECVATEENPQVYFCCCEGNFCNERFTHLPEAGGPEVTYEPPPTAPT
Work on B1 yielded a Kd (BMP9) of 3.4 nM, a Kd (BMP6) of 2.7 nM and a koff (BMP6) of 0.0055 s⁻¹. It also gave a kon (BMP6) of 2e+06 M⁻¹ s⁻¹, a Kd (GDF11 [3]) of 0.003 nM and a koff (GDF11 [3]) of 0.00011 s⁻¹. The kon (GDF11 [3]) was 3.8e+07 M⁻¹ s⁻¹, the Kd (GDF3) was 4.9 nM and the koff (GDF3) was 0.017 s⁻¹. For the same molecule, the kon (GDF3) was 3.4e+06 M⁻¹ s⁻¹, the Kd (BMP10) was 0.074 nM and the koff (BMP10) was 0.0041 s⁻¹. The kon (BMP10) was 5.6e+07 M⁻¹ s⁻¹, the Kd (GDF8) was 0.55 nM and the koff (GDF8) was 0.00021 s⁻¹. For the same molecule, the kon (GDF8) was 390000 M⁻¹ s⁻¹, the Kd (activin A [4]) was 0.012 nM and the koff (activin A [4]) was 0.00015 s⁻¹. For the same molecule, the kon (activin A [4]) was 1.3e+07 M⁻¹ s⁻¹, the Kd (activin B) was 0.006 nM and the koff (activin B) was 4e-05 s⁻¹. It also gave a kon (activin B) of 7.1e+06 M⁻¹ s⁻¹.
